Key:
[1] = target: T1, UvrA; experiment: SPR (BIAcore), His-tagged β domain immobilised on Ni-NTA sensor chip, UvrA injected, without ATP (- ATP)
T1 construct: UvrA was the analyte in the BIAcore experiment

[2] = target: T1, UvrA; experiment: SPR (BIAcore), His-tagged β domain immobilised on Ni-NTA sensor chip, UvrA injected, with ATP (+ ATP)

- Kd [1]: 2600 nM
- koff [1]: 0.52 s⁻¹
- kon [1]: 200000 M⁻¹ s⁻¹
- Kd [2]: 400 nM
- koff [2]: 0.06 s⁻¹
- kon [2]: 150000 M⁻¹ s⁻¹
B1: UvrB-β (enzyme)
chain: RNLVVERGKPYPREVLLERLLELGYQRNDIDLSPGRFRAKGEVLEIFPAYETEPIRVELFGDEVERISQVHPVTGERLRELPGFVLFPA
